From patent US8173397B2, “Folded recombinant catalytic fragments of multidomain serine proteases, preparation and uses thereof” (TargetEx Kft., priority 2002, dated 2012)

Assays:
C2 = biological target: T1, C2 (Homo sapiens, UniProt P06681); assay: C2 cleavage by MASP fragments; format: biochemical; conditions: 37° C., pH 7.4; averages of 2 to 4 experiments, standard errors
T1 construct: from tissue
T1 sequence (P06681 21-752): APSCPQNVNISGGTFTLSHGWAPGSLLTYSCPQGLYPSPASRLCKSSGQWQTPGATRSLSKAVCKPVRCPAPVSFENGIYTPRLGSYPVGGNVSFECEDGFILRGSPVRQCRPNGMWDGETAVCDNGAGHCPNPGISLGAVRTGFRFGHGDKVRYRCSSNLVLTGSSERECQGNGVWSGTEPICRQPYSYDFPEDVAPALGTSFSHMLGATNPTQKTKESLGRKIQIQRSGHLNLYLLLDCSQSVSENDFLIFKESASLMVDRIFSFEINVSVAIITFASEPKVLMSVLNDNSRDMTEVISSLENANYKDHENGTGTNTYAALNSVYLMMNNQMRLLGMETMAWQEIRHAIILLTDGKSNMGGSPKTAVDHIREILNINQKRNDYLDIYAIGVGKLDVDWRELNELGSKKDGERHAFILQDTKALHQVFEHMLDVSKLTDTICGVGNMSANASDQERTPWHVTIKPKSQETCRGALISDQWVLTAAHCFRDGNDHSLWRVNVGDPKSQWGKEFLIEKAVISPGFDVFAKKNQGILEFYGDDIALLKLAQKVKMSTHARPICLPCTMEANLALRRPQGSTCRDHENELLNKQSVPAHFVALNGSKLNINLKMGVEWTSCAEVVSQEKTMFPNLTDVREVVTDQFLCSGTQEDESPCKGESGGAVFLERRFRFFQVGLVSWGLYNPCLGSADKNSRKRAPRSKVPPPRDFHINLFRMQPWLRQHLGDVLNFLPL
Procedure: (§1) C2, C3, C3(NH3), C4 cleavage—Serial dilutions of MASP-1 and MASP-2 fragments ranging between concentrations of 1 μM and 10 pM were incubated at 37° C. in 20 mM HEPES, 140 mM NaCl, pH 7.4 with C2, C3, C3(NH3) or C4 at typical concentrations of 0.5-1 μM. The cleavage was followed by SDS-PAGE under reducing conditions. Desirable concentrations of the MASP fragments for further detailed kinetic analysis were chosen to be where half of the protein substrates were hydrolyzed during the first 20 minutes of incubation. The protein substrates C2, C3, C3(NH3) or C4 were then incubated with the selected concentrations of the MASP fragments at 37° C. in 20 mM HEPES, 140 mM NaCl, pH 7.4. Typically 11-13 samples were taken at varying time periods but always within 50 minutes from the beginning of the reaction. Cleavages rates were quantified by measuring the diminution of the cleaved chain visualized by Coomassie stained SDS-PAGs using a GEL DOC 1000 instrument and Molecular Analyst Software for densitometric calculations (Bio-Rad, Hercules, Calif., USA). The reactions were assumed to be of the Michaelis-Menten type. In the case of C3 and C3(NH3) cleavage a further reasonable assumption of KM>>[substrate] was made. The constants KM, kcat and […] were estimated by unbiased non-linear regression methods regressing the data on the following equations: t=([S0]−[S]+KMln([S0]/[S]))/(kcat[E0]) or in the case of C3 and C3(NH3) cleavage on [S]=[S0]exp(−t[E0]kcat/KM).

C4 = C4 cleavage by MASP fragments; format: biochemical, human; conditions: for C4 kcat: 37° C., pH 7.4, averages of 2 to 4 experiments, standard errors
Procedure: as §1

C1-inhibitor = biological target: T2, C1-inhibitor (Homo sapiens, UniProt P05155); assay: Rate of SDS stable complex formation of 125I-labelled MASP fragments with C1-inhibitor; format: biochemical
T2 construct: Purification of C1-inh and Alpha-2-Macroglobulin; from tissue
T2 sequence (P05155 23-500): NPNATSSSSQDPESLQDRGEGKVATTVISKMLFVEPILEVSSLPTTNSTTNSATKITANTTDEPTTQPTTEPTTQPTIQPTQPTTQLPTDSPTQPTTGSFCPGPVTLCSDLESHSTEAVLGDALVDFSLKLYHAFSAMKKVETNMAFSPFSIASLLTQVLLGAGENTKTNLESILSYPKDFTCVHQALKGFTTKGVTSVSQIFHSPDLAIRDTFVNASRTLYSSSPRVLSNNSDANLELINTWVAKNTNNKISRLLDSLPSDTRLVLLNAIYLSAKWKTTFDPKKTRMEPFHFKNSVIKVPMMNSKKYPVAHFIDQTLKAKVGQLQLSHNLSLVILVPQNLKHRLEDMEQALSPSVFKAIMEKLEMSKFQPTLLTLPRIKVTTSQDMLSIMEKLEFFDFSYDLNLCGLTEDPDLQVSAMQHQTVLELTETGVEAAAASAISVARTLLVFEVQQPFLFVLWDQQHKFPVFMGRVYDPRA
Procedure: To assess the rate of SDS stable complex formation between the MASP-1 and MASP-2 CCP1-CCP2-SP fragments and C1-inhibitor, the ^125I-labelled MASP fragments at concentrations ranging between 30-100 nM were incubated with 100-350 nM C1-inhibitor at 37° C. in 20 mM HEPES, 140 mM NaCl, pH 7.4 for 40 minutes. Typically 11-13 samples were taken at varying time periods. The reactions were stopped by reducing sample buffer containing 0.125 M Tris, 4.8% SDS, 8 M urea 20% glycerol, 720 mM mercaptoethanol, 0.02% bromophenol blue, pH6.8. The samples were further incubated at 37° C. for 30 minutes and run on reducing SDS-PAGE. Cleavages rates were visualized by means of autoradiography and the diminution of the reacted MASP chain was quantified using a GEL DOC 1000 instrument and Molecular Analyst Software for densitometric calculations (Bio-Rad, Hercules, Calif., USA). The kinetic constants were calculated assuming irreversible inhibition proceeded by reversible enzyme-inhibitor complex formation. Using steady-state approximation and neglecting the starting enzyme concentration compared to the starting inhibitor concentration ([I0]>>[E0]) the data was regressed on the following equation using non-linear regression methods: [E]=[E0]exp(−kobst); kobs=k2[I0]/(Ki+[I0]), where kobs is the observed pseudo-first order rate of reaction, k2 is the rate of irreversible enzyme-inhibitor complex formation and Ki is the inhibitory constant.

B1: MASP-2 CCP-SP: E. coli-expressed, refolded human MASP-2 CCP2-SP fragment, Ala-Ser-Met-Thr tag followed by Ile363, ending Phe686 (protein)
chain 1: ASMTIVDCGPPDDLPSGRVEYITGPGVTTYKAVIQYSCEETFYTMKVNDGKYVCEADGFWTSSKGEKSLPVCEPVCGLSARTTGGR
chain 2: IYGGQKAKPGDFPWQVLILGGTTAAGALLYDNWVLTAAHAVYEQKHDASALDIRMGTLKRLSPHYTQAWSEAVFIHEGYTHDAGFDNDIALIKLNNKVVINSNITPICLPRKEAESFMRTDDIGTASGWGLTQRGFLARNLMYVDIPIVDHQKCTAAYEKPPYPRGSVTANMLCAGLESGGKDSCRGDSGGALVFLDSETERWFVGGIVSWGSMNCGEAGQYGVYTKVINYIPWIENIISDF
C2 kcat (C2): 3.0 ± 2.2 s⁻¹ | C4 kcat (C4): 2.0 ± 1.0 s⁻¹ | increase in the kcat/KM value of C4 cleavage by presence of the CCP2 domain (C4; relative to MASP-2 SP domain alone): 44 fold

B2: MASP-2 SP: E. coli-expressed, refolded human MASP-2 serine protease domain, Ala-Ser-Met-Thr tag followed by Pro432, ending Phe686 (protein)
chain 1: ASMTPVCGLSARTTGGR
chain 2: IYGGQKAKPGDFPWQVLILGGTTAAGALLYDNWVLTAAHAVYEQKHDASALDIRMGTLKRLSPHYTQAWSEAVFIHEGYTHDAGFDNDIALIKLNNKVVINSNITPICLPRKEAESFMRTDDIGTASGWGLTQRGFLARNLMYVDIPIVDHQKCTAAYEKPPYPRGSVTANMLCAGLESGGKDSCRGDSGGALVFLDSETERWFVGGIVSWGSMNCGEAGQYGVYTKVINYIPWIENIISDF
C2 kcat (C2): 3.9 ± 3.0 s⁻¹ | C4 kcat (C4): 0.20 ± 0.06 s⁻¹

B3: MASP-2γB: E. coli-expressed, refolded human MASP-2 CCP1-CCP2-SP fragment, Thr287 to Phe686, Ala-Ser-Met tag; purified form starts with Ile291 (protein)
chain 1: IHYTSTAQPCPYPMAPPNGHVSPVQAKYILKDSFSIFCETGYELLQGHLPLKSFTAVCQKDGSWDRPMPACSIVDCGPPDDLPSGRVEYITGPGVTTYKAVIQYSCEETFYTMKVNDGKYVCEADGFWTSSKGEKSLPVCEPVCGLSARTTGGR
chain 2: IYGGQKAKPGDFPWQVLILGGTTAAGALLYDNWVLTAAHAVYEQKHDASALDIRMGTLKRLSPHYTQAWSEAVFIHEGYTHDAGFDNDIALIKLNNKVVINSNITPICLPRKEAESFMRTDDIGTASGWGLTQRGFLARNLMYVDIPIVDHQKCTAAYEKPPYPRGSVTANMLCAGLESGGKDSCRGDSGGALVFLDSETERWFVGGIVSWGSMNCGEAGQYGVYTKVINYIPWIENIISDF
C2 kcat (C2): 1.9 ± 0.8 s⁻¹ | Ki values for the C1-inhibitor reaction, in words (C1-inhibitor): in the nanomolar range | k2, rate of irreversible enzyme-inhibitor complex formation with C1-inh (C1-inhibitor; 37° C., pH 7.4): 0.008 s⁻¹ | Ki (C1-inhibitor; 37° C., pH 7.4, read-out: Ki, reaction with C1-inh): 8.8 nM | kobs, pseudo-first order rate of reaction with C1-inh (C1-inhibitor; [C1-inh] = 350 nM, 37° C., pH 7.4): 0.0078 s⁻¹ | C4 kcat (C4): 0.9 ± 0.4 s⁻¹
